Measurements reported in US20060134741.

Tests used:
[1] = system: sentrin-modified proteins (Sentrin-1 conjugates)
[2] = target: T1, Sentrinized PML (construct not stated), P29590
T1 chain: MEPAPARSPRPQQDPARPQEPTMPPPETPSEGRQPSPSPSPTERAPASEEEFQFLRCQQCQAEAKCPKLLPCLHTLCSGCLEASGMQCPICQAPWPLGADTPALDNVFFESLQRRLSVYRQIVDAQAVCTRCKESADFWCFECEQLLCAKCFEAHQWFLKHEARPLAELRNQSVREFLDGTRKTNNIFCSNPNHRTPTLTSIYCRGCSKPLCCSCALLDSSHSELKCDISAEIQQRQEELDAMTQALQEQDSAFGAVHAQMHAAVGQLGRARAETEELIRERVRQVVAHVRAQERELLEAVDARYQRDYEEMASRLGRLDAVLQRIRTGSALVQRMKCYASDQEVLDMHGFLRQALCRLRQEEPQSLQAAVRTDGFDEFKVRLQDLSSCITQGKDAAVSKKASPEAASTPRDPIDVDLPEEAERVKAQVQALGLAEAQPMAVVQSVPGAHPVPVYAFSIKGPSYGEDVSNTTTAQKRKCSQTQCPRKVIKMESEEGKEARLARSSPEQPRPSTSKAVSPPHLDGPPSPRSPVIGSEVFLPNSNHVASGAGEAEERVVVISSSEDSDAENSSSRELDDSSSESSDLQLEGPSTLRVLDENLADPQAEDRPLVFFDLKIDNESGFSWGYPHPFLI

[3] = target: T2, sentrinized RanGAP (construct not stated), P46060
T2 chain: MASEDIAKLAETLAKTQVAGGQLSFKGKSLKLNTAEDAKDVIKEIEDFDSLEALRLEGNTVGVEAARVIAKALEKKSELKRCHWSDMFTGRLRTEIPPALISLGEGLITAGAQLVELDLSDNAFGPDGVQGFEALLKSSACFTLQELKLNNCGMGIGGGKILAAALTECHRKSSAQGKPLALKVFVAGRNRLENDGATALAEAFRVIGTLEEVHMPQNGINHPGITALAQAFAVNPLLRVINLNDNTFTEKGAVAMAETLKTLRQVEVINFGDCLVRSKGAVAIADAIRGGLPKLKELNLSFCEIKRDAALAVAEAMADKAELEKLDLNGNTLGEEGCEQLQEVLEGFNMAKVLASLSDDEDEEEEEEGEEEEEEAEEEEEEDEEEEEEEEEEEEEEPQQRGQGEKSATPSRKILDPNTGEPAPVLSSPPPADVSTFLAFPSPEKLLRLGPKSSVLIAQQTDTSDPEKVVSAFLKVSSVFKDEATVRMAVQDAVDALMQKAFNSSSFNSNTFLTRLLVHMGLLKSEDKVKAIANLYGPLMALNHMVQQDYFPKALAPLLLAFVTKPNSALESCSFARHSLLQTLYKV

HsUlp1 (full length, 371 aa)
protease activity against sentrin-modified proteins [1]: extensive studies indicated that HsUlp I had no activity against sentrin-modified proteins

B1: SENP2 (protein)
chain: MVTSACNGTRNVAPSGEVFSNSSSCELTGSGSWNNMLKLGNKSPNGISDYPKIRVTVTRDQPRRVLPSFGFTLNSEGCNRRPGGRRHSKGNPESSLMWKPQEQAVTEMISEESGKGLRRPHCTVEEGVQKEEREKYRKLLERLKESGHGNSVCPVTSNYHSSQRSQMDTLKTKGWGEEQNHGVKTTQFVPKQYRLVETRGPLCSLRSEKRCSKGKITDTEKMVGIRFENESRRGYQLEPDLSEEVSARLRLGSGSNGLLRRKVSIIETKEKNCSGKERDRRTDDLLELTEDMEKEISNALGHGPQDEILSSAFKLRITRGDIQTLKNYHWLNDEVINFYMNLLVERNKKQGYPALHVFSTFFYPKLKSGGYQAVKRWTKGVNLFEQEIILVPIHRKVHWSLVVIDLRKKCLKYLDSMGQKGHRICEILLQYLQDESKTKRNSDLNLLEWTHHSMKPHEIPQQLNGSDCGMFTCKYADYISRDKPITFTQHQMPLFRKKMVWEILHQQLL
effect on sentrinized PML [2]: Sentrinized PML, a tumor suppressor that resides in the nucleus, was selectively affected by SENP2
effect on sentrinized RanGAP [3]: sentrinized RanGAP remained intact
